Test results as given in patent US20090068744A1, “VITREOUS CELL LINE” (SENJU PHARMACEUTICAL CO., LTD., priority 2006, published 2009).

What was measured:
[1] = system: VEGF protein expression by a vitreous cell line; assay: VEGF protein in culture supernatant by ELISA after cytokine stimulation; type: cell-based, swine; details: cytokine 10 ng/ml; ELISA with antibody to human VEGF, relative values; FIG. 8
Protocol: (§1) Changes of VEGF expression due to cytokine stimulation in the vitreous cell line established in Example 1 were examined. The expression of VEGF at an mRNA level was examined by RT-PCR, and the expression at a protein level was examined by ELISA.
(§2) To be specific, when the vitreous cell line reached 50-60% confluent, the medium for the cells was exchanged with DMEM containing 1% bovine serum. After culturing for 24 hours, the cells were stimulated with cytokine (IL-1α, IL-1β, TNFα, PDGF-AA, PDGF-BB or TGFβ) (10 ng/ml) for 48 hours (FIG. 6). Total RNA was extracted from the stimulated cells, cDNA was synthesized, and PCR was conducted using VEGF primers. The medium of the stimulated cells was used for ELISA. Since an appropriate antibody to swine VEGF is not available, VEGF protein concentration was measured by ELISA using an antibody to human VEGF, and the result was calculated as a reference value led from a human VEGF standard product. PCR was conducted using TOYOBO KOD plus kit and Gene PCR System 9700 (Applied Biosystem). The conditions of PCR were as follows:
(§3) 95° C. 120 seconds; (95° C. 15 seconds, 62° C. 30 seconds, 68° C. 30 seconds)×30 cycles; 68° C. 90 seconds. ELISA was entrusted to Mitsubishi BCL.

[2] = system: VEGF mRNA expression by a vitreous cell line; assay: VEGF mRNA expression by RT-PCR after cytokine stimulation of the vitreous cell line; type: cell-based, swine; details: for VEGF mRNA expression level: cytokine 10 ng/ml, up to 48 hours, FIG. 7, FIG. 9; for VEGF mRNA level as compared to the mRNA level of non-stimulation control: RT-PCR
Protocol: as §1
as §2, with “After culturing for 24 hours, the cells were stimulated with cytokine (IL-1α, IL-1β, TNFα, PDGF-AA, PDGF-BB or TGFβ) (10 ng/ml) for 48 hours (FIG. 6).” left out
as §3

Molecule	concentration of VEGF protein in the culture supernatant [1]	VEGF mRNA expression level [2]	VEGF mRNA level as compared to the mRNA level of non-stimulation control ([2]; in 12 hours)	VEGF mRNA level as compared to the mRNA level of non-stimulation control ([2]; in 48 hours)
IL-1α: cytokine used to stimulate the vitreous cell line (10 ng/ml) (protein, UniProt P01583 113-271, looked up) Interleukin-1 alpha: SAPFSFLSNVKYNFMRIIKYEFILNDALNQSIIRANDQYLTAAALHNLDEAVKFDMGAYKSSKDDAKITVILRISKTQLYVTAQDEDQPVLLKEMPEIPKTITGSETNLLFFWETHGTKNYFTSVAHPNLFIATKQDYWVCLAGGPPSITDFQILENQA	increased with time	increased with time	≥ 2 fold	≥ 2.5 fold
PDGF-BB: cytokine used to stimulate the vitreous cell line (10 ng/ml) (protein, UniProt P01127 82-190, looked up) Platelet-derived growth …: SLGSLTIAEPAMIAECKTRTEVFEISRRLIDRTNANFLVWPPCVEVQRCSGCCNNRNVQCRPTQVQLRPVQVRKIEIVRKKPIFKKATVTLEDHLACKCETVAAARPVT		a significant change in the VEGF mRNA expression level was not observed		
